This sample holds only a part of the variants without activity.
B1: TPR 5TU (parent)
chain: GGAUCUUCUCGAUCUAACAAAAAAGACAAAUCUGCCACAAAGCUUGAGAGCAUCUUCGGAUGCAGAGGCGGCAGCCUUCGGUGGCGCGAUAGCGCCAACGUUCUCAACUAUGACACGCAAAACGCGUGCUCCGUUGAAUGGAGUUUAUCAUG

Variants of: B1
Test: polymerase ribozyme fitness, log enrichment relative to wild type (log ratio); higher = more active; in vitro selection for triplet polymerase activity
Procedure, shortened: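 Each subunit of a heterodimeric triplet polymerase ribozyme was mutagenized into a library by PCR, transcribed, and subjected to one round of in vitro selection, run in triplicate. Libraries were annealed with a biotinylated primer, the partner subunit and triplets, incubated frozen at −7 °C, and extended constructs were gel-excised, captured on streptavidin beads and recovered by RT-PCR. Input and output libraries were sequenced on Illumina, keeping genotypes with ≥10 input reads and ≥1 read per output. Fitness is log base 2 of genotype enrichment divided by wild-type enrichment, from inverse-variance-weighted replicate averages.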

Point of comparison: A20G A22U C93G, “polymerase ribozyme fitness (log ratio)” value -4.09. Against it:
- A19G C72G A89G — lower, ≤ -4.2
- A19U U44A C95U C99G — lower, ≤ -4.2
- A19G A47C C57A C96U U101G C123U U145A — higher, -0.877
- A19C U44A — higher, -3.87
- A20G A21U A26U A29U A39C A91G G94U A97G C99A C131A A142G — lower, ≤ -4.2
- A19U C51G G59C C75G G88A A91U C96U G141C — lower, ≤ -4.2
- A19U A21U G86A C103U — higher, -2.31
- A19G G67C G124U — lower, ≤ -4.2
- A20C A30C G100C U102G G143U U145G — lower, ≤ -4.2
- A20C U33A C43U G88U G92A A115C G126A C132U A147C — lower, ≤ -4.2
- A19U U44G G50C A73G C76A G140A — lower, ≤ -4.2
- A19G C93A — higher, -3.43
- A19U G34U C51U U53C G81A G86U G92A C96U A98G — lower, ≤ -4.2
- A19C U56C C96U G133C — higher, -2.22
- A19G C85G G117A A137G — higher, -2.73
- A20C A22U C51U — higher, -0.386
- A19C U109G — higher, -0.641
- A20C A60C C85A — higher, -2.66
- A19U A28U A52G C105G G126C G141C U148A C149U A150C — lower, ≤ -4.2
- A19U G59U G86A G136A — higher, -2.01
- A20C G34A A47G U104G U130G A150G — lower, ≤ -4.2
- A20C G59A G81C G86C — higher, -3.14
- A19U A24U G46U A49C U82G C99A — lower, ≤ -4.2
- A20C G92A U101G G124A C129U — higher, -3.24
- A19G U148G — higher, -3.88
- A19U C57U C103G A119G C123A — higher, -3.45
- A19U A26U G46A C87A A91U G94A U127C G143C — lower, ≤ -4.2
- A20C A26C A30C U44G G50A A66C — lower, ≤ -4.2
- A19G A22G U31G A41U U44A A60C G81A G83C G84A U146A — lower, ≤ -4.2
- A19G A23U C57G G84U C93G G94C A122U A142C — lower, ≤ -4.2
- A19G G42A A66C C85U A106U U148A — lower, ≤ -4.2
- A19G U56A G86A G141U — higher, -1.64
- A19C U45A G59U U148A C149G — lower, ≤ -4.2
- A19U C95U — higher, -0.543
- A19U C85A A113U — higher, -3.44
- A19C U56A — higher, 0.406
- A19U A89U G136U — higher, -3.55
- A20C A47U C51U C105U U144A — higher, -2.59
- A20C U53A C54A G59A G84A G124C — higher, -2.39
- A19G A26C U144G — higher, -2.17
- A19U A52C — higher, -1.34
- A20C C85A G126C U144A — higher, -0.594
- A19G A49C C54A G68A C93A C95A C103U G124A — lower, ≤ -4.2
- A20C G62A G86U — higher, -2.06
- A19U A30C C95G — lower, ≤ -4.2
- A19U G81C C85U U145A — higher, -0.303
- A19G U82G G124A G140C — higher, -3.62
- A19U A120U — higher, -0.806
- A19G A30G C38U C85G A89U U130G — lower, ≤ -4.2
- A19G A73U G94C — higher, -2.39
- A19U C85G G92U C123U — higher, -2.54
- A19U C96G C114U — higher, -2.99
- A20C U61G C75U U146A — higher, -2.77
- A19G A29U C95U A122G — lower, ≤ -4.2
- A19U A28U G67C U82A C87A A122C U127C U145C — lower, ≤ -4.2
- A19U G59C A89U G92C A121G — higher, -2.25
- A20C G68C G141C — lower, ≤ -4.2
- A19U A20U C85U — higher, -2.59
- A20C G42C G50U G84A C99A — lower, ≤ -4.2
- A19U A47G U53G G67C C99U A142C A147C — lower, ≤ -4.2
- A19G C35A G42C G68C G92A — lower, ≤ -4.2
- A19G C32A U56G C57U U82A — lower, ≤ -4.2
- A20C G94A G136U — higher, -3.83
- A19U A40G G124A — within 0.2 log units, -4.11
- A20C C54U G86C U101C U104A — lower, ≤ -4.2
- A19U U55G G86U — higher, -1.7
- A19U U31G U144C — higher, -1.49
- A20C A21U A23C C51A C123A A138U — lower, ≤ -4.2
- A20C C35U A97G — higher, -0.284
- A20C G65U U90G C93U C129A — lower, ≤ -4.2
- A19G A26C U55G G83U U151C — lower, ≤ -4.2
- A20C A49G — higher, -0.512
- A19C U56A G94A C99U U135A U148A U151G — lower, ≤ -4.2
- A19C U31A C38A G80A A98U — higher, -0.863
- A19U C38A C54U C85A C108A — lower, ≤ -4.2
- A19U A37C U135G — higher, -3.82
- A19G C85A — higher, -2.09
- A19U A21G U45G U56A G92U — higher, -1.94
- A20C A24U C93U U130G A150G — lower, ≤ -4.2
- A19C U55A C123G C125A U148G — lower, ≤ -4.2
- A20C A39U A106G C131U A138U — lower, ≤ -4.2
- A19U A49C A52G A106G — lower, ≤ -4.2
- A20C U53A — higher, -2.16
- A19U C38G G59C G86A C99U G117U C118A U127A A138G — lower, ≤ -4.2
- A19U C38U A49C G58C C79U G88A A97C — lower, ≤ -4.2
- A20C U61A C63U C85U — higher, -1.55
- A20C U82A A150G — higher, -0.662
- A20G A22C C93A — higher, -3.38
- A19C U55A A91G — higher, -2.67
- A20C G136A — higher, -0.55
- A19U A91G C93G U111A A137C — lower, ≤ -4.2
- A20C U127G G133C U134C A137C A138G G140A — lower, ≤ -4.2
- A20C A24C C51A G74C G94U A121U U135G U148C — lower, ≤ -4.2
- A20C A40C U56A G92U — higher, -0.349
- A19U A21U C85G — higher, -2.46
- A19G A39U U55G A121C — higher, -2.95
- A19G C93A G140A — lower, ≤ -4.2
- A19U C69G C85U U134G G152U — lower, ≤ -4.2
- A19U A37U U44G A66U G92U C96A C123U G124A — lower, ≤ -4.2
- A19U C27A A91U G94U G126U G141A G143C — lower, ≤ -4.2
- A19U G50U C51A C96U A119G — within 0.2 log units, -3.91
- A19U A47C C93U — higher, -1.1
- A19U C96U — higher, -0.369
- A19U C96A — higher, -0.531
- A19G C54G — higher, -1.84
- A19G A91G C95U C125U — within 0.2 log units, -4.01
- A19G A73G C85A — higher, -1.82
- A19U G86A — higher, -2.04
- A19U G86C — higher, -2.58
- A20C A52U C93U C95A C96A U109A C125U — lower, ≤ -4.2
- A19U G81A — higher, -0.839
- A19G G59U G84U C105G — higher, -3.78
- A19U G48A — higher, -1.05
- A19U G48U — higher, -0.613
- A19U A23C C27A C85A — lower, ≤ -4.2
- A20C A24U U44A G88A C93U — lower, ≤ -4.2
- A19G A91U — lower, ≤ -4.2
- A20C A26C G128U U144G — lower, ≤ -4.2
- A19G A21C A30U C38G A41C G48A U77G C93G C114G — lower, ≤ -4.2
- A19C U45A G67A — lower, ≤ -4.2
- A19G G126C — higher, 0.693
- A19U A22C G94C C96G C123U G128A U139C U146C — lower, ≤ -4.2
- A19G G83C — higher, -1.11
- A19U U45G — higher, -0.38
- A19G G25U A47C U78C C96A — lower, ≤ -4.2
- A19C U31C — higher, 1.56
- A19C U53A G58A — higher, 0.679
- A20C C76U C85U C95U C96U — higher, -3.03
- A20C C27U G81A G86A C99G — higher, -2.96
- A20C A49C A52C C57U C76A G88A A106G G126C U145G — lower, ≤ -4.2
- A20C A39C C79G A106G G124U — lower, ≤ -4.2
- A19G U82G G94A C96U A97U G124U — higher, -2.53
- A19G C85U G94U G141U — higher, 0.14
- A20C G86A — higher, -2.24
- A19U A23G U90G — within 0.2 log units, -3.99
- A20C U55G C57U A120C — higher, -0.73
- A19G A41C G42C A49C U90C U127A — lower, ≤ -4.2
- A19U A40C G81C C96G — higher, -1.25
- A19U A21U G94A — higher, -1.09
- A19U A29U A39G U44G C85U G143U — lower, ≤ -4.2
- A20C A23U A29U G92A A110U U139G A142G U144G — lower, ≤ -4.2
- A20C U56A C75U — higher, -0.244
- A19U U55A G59U — higher, 0.528
- A19U G50A G71A A89G A137G — lower, ≤ -4.2
- A19U G46U A52U — lower, ≤ -4.2
- A20C A40G A52G C85A A98G — within 0.2 log units, -4.01
- A19U U56A A60G U104G G152A — higher, -2.82
- A19G G59U — higher, -0.93
- A20C G46A C69G G94A — higher, -2.22
- A19U G59A G83U U139G — higher, -1.28
- A19G U55A G68A G71A C103U — lower, ≤ -4.2
- A19G G50A G83C G86U C96U — lower, ≤ -4.2
- A20C G83U A89U A97U — higher, -2.13
- A19G A20G A60G C76A A89U C93A — lower, ≤ -4.2
- A19G G42U G50U A52U C75U G88U G92C G143A — lower, ≤ -4.2
- A20C U55A G67C G124A A137U — lower, ≤ -4.2
- A19G G59U C76A C96U — higher, -1.25
- A19U C35U G42U U55G G67A C85G A97C C114G G140U — lower, ≤ -4.2
- A20C C118U — higher, -0.906
- A20C A98U — higher, -1.29
- A20C C36A A49U U56G A91U U146C — lower, ≤ -4.2
- A20C G83C C118G U130G — lower, ≤ -4.2
- A20C C93U — higher, -1.41
- A20C C93G — higher, -3.89
- A20C C36U C85G C103G — lower, ≤ -4.2
- A19G G46C A107U A120C C129U — lower, ≤ -4.2
